The nature of data set [1]: In vivo bioconversion of cannabinoid substrate to glycoside in E. coli expressing glycosyl transferases. The format is cell-based. The method, then:
The Sr76G1 expression plasmid (PL-55(Sr76G1_GA (SEQ ID NO:123,124)) was also included (resulting in E. coli strain EC-55) to test whether the absence of activity observed in vitro was also observed in vivo. Strains were subsequently incubated overnight in 5 mL of LB media supplemented with ampicillin in 10 mL pre-culture tubes at 37° C. Subsequently, cells were inoculated to a starting OD600 of 0.1 in 500 μL of LB media supplemented with ampicillin in a 96 deep-well plate and incubated at 30° C. for 6 hours. A cannabinoid substrate was then dissolved in ethanol and added to the culture media along with a suitable inducing agent (IPTG) in the following final concentrations:
Cannabinoid substrate: 250 μM
Cells were cultivated with the added ethanol, cannabinoid substrate and IPTG for a further 66 hours. Cannabinoid glycosides were extracted and analyzed by HPLC analysis as described above. The decrease in cannabinoid concentration and accumulation of cannabinoid glycosides were quantified and percent conversion calculated for each glycoside. As shown in table 51 below E. coli strains expressing glycosyl transferases could convert a range of cannabinoids into their corresponding glycosides.

A short description of data set [2]: In vitro glycosyl transferase performance, purified enzymes, % conversion of cannabinoids to cannabinoid glycosides. The format is biochemical. The method, then: For in vitro studies of glycosyl transferase performance in glycosylating cannabinoids, purified Glycosyl transferases were prepared as follows:
5 mL of 2× concentrated LB medium+Ampicillin (50 μg/m L) was inoculated with E. coli XJb (DE3) strains expressing a glycosyl transferase of interest and incubated overnight at 30° C. with shaking. The following day, cell cultures were transferred into 500 mL of 2× concentrated LB medium+Ampicillin (50 μg/mL) and incubated overnight at 30° C. with shaking. The following day, the cell cultures were transferred to 1 L of 2× concentrated LB medium+Ampicillin (50 μg/mL)+3 mM arabinose+0.1 mM IPTG. Cells were incubated for 24 h at 20° C. with shaking. The following day, the cells were collected by centrifugation at 46500×g for 10 mins at 4° C. Cells were resuspended in 20 mL ice-cold GT buffer (50 mM Tris-HCl pH7.4+1 mM phenylmethanesulfonyl fluoride+1 cOmplete™, mini, EDTA-free Protease Inhibitor Cocktail tablet (Roche)). The resuspended material was transferred to a 50 mL falcon tube and kept at −80° C. for at least 15 mins. Falcon tubes were then thawed at room temperature, as the tubes were thawing the following reagents were added; 2.6 mM MgCl2, 1 mM CaCl2, 250 μL of a 1.4 mg/ml DNase solution (Sigma) dissolved in MilliQ water. Tubes were gently inverted to mix then were incubated for 5 mins at 37° C. Binding buffer was then added to the tubes (50 mM Tris-HCl pH7.4, 10 mM imidazole, 500 mM NaCl. 11.25 mL MilliQ water) and the pH adjusted to 7.4 with HCl. The mix was centrifuged at 15550×g for 15 mins at 4° C., the supernatant transferred to a fresh 50 mL falcon tubes and centrifuged again to remove any remaining cellular debris at 48400×g for 20 minutes at 4° C. While the enzyme prep was centrifuging, 3 mL of HIS-Select (available from Sigma P6611) column material was added to a fresh 50 mL tube and washed by adding MilliQ water up to 50 mL, centrifuging at 2000×g for 2 mins and discarding the supernatant. This washing step was repeated. Finally, MilliQ water was added to the HIS-Select material to an approximate 50% volume. Collected supernatant from the centrifuged enzyme preparation was transferred to the tube containing the HIS-Select material through a Miracloth (available from Merck Millipore), and then incubated at 4° C. with gently shaking by inversion for 2 h. After 2 h the mix was centrifuged at 2000×g for 4 minutes at 4° C. and the supernatant discarded. The remaining HIS-Select material was washed twice with 1× binding buffer (50 mM Tris-HCl, 0.5M NaCl, 10 mM Imidazole, pH 7.4) with centrifugation at 2000×g for 4 minutes at 4° C. The HIS-Select material was resuspended in 5 mL 1× binding buffer and transferred to a Poly-Prep®Chromatography Column (available from BioRad, 7311550). The HIS-Select material was kept at 4° C. and washed twice with 1× binding buffer by filling up the column and allowing it to drip through. Finally, purified Glycosyl transferases were eluted from the HIS-Select material by adding 7.5 mL of elution buffer (50 mM Tris-HCl, 500 mM Imidazole, pH7.4) and collecting the flow through. Enzymes were used immediately in in vitro enzyme assays or stored at −20° C. in 50% glycerol until needed.
In vitro conversion of various cannabinoids to cannabinoid glycosides was carried out according to table 21. Alkaline phosphatase was provided by New England Biolabs (M0371S). Cannabinoids were dissolved in methanol. The UDP-sugar (e.g. UDP-glucose) was provided by a commercial supplier (e.g. Sigma) or produced by in vitro enzymatic conversion from a commercially available UDP-sugar as shown in Example 21.
The reaction mixture was scaled up or down as required. The reaction mixture was incubated without shaking at 30° C. for 24 hours. Extraction and analysis were performed as described above for this example. […]

Data set [3] can be described thus: In vitro conversion of CBD with combined glycosyl transferases (sugar-sugar linkages). The data set is classed as biochemical. The text has this: The glycosyl transferases described herein can broadly be grouped into either glycosyl transferases active on the cannabinoid aglycones or glycosyl transferases active on cannabinoid glycosides. The latter group, instead of attaching a sugar moiety onto a free hydroxy group on the cannabinoid molecule, attaches a sugar moiety onto the sugar group of the cannabinoid glycoside. In Example 13 a range of glycosyl transferases were discovered that were active only on cannabinoid aglycones (e.g. PL-159(Pt88G_GA) (SEQ ID NO: 147, 148)) as well a range of glycosyl transferases which were active on both cannabinoid aglycones and cannabinoid glycosides. […] Two of these enzymes (PL-55(Sr76G1_GA) (SEQ ID NO: 123, 124) and PL-32(OsEUGT11_GA) (SEQ ID NO: 115, 116)) are described in prior art and are well known to catalyze a range of sugar on sugar reactions and were recently described as being able to perform sugar on sugar reactions on cannabinoid glycosides. […] In vitro assays were performed and analyzed as described previously. […] By comparing the LC-MS/QTOF retention time, measured mass and fragmentation pattern as well as the c Log P it could be elucidated that Sr76G1, OsEUGT11 and Si94D were catalysing sugar on sugar reactions with different linkages. […]

B1: Cs73Y: glycosyl transferase, SEQ ID NO: 157 (207 for the yeast codon-optimized gene) (protein)
chain: MGSEGRQLHIFMFPFMAHGHMIPIVDMAKLFASRGIKITIVTTPLNSISISKSLHNCSPNSLIQLLILKFPAAEAGLPDGCENADSIPSMDLLPKFFEAVSLLQPPFEEALHNNRPDCLISDMFFPWTNDVADRVGIPRLIFHGTSCFSLCSSEFMRLHKPYQHVSSDTEPFTIPYLPGDIKLTKMKLPIFVRENSENEFSKFITKVKESESFCYGVVVNSFYELEAEYVDCYKDVLGRKTWTIGPLSLTNTKTQEITLRGRESAIDEHECLKWLDSQKPNSVVYVCFGSLAKFNSAQLKEIAIGLEASGKKFIWVVRKGKGEEEEEEQNWLPEGYEERMEGTGLIIRGWAPQVLILDHPSVGGFVTHCGWNSTLEGVAAGVPMVTWPVGAEQFYNEKLVTEVLKTGVGVGVQKWAPGVGDFIESEAVEKAIRRIMEKEGEEMRNRAIELGKKAKWAVGEEGSSYSNLDALIEELKSLAF
B1: in data set [1] (E. coli, 250 μM CBN fed, to OB23), the “conversion of fed cannabinoid to cannabinoid glycoside in vivo” value is listed as 100%.

B2: Sr76G1: glycosyl transferase isolated from S. rebaudiana, SEQ ID NO: 123, 124, described in prior art (protein)
chain: MDQMAKIDEKKPHVVFIPFPAQSHIKCMLKLARILHQKGLYITFINTDTNHERLVASGGTQWLENAPGFWFKTVPDGFGSAKDDGVKPTDALRELMDYLKTNFFDLFLDLVLKLEVPATCIICDGCMTFANTIRAAEKLNIPVILFWTMAACGFMAFYQAKVLKEKEIVPVKDETYLTNGYLDMEIDWIPGMKRIRLRDLPEFILATKQNYFAFEFLFETAQLADKVSHMIIHTFEELEASLVSEIKSIFPNVYTIGPLQLLLNKITQKETNNDSYSLWKEEPECVEWLNSKEPNSVVYVNFGSLAVMSLQDLVEFGWGLVNSNHYFLWIIRANLIDGKPAVMPQELKEAMNEKGFVGSWCSQEEVLNHPAVGGFLTHCGWGSIIESLSAGVPMLGWPSIGDQRANCRQMCKEWEVGMEIGKNVKRDEVEKLVRMLMEGLEGERMRKKALEWKKSATLATCCNGSSSLDVEKLANEIKKLSRN
As for B2, in data set [2] (any cannabinoid aglycone), the “glycosyltransferase activity using cannabinoid aglycones as substrate” value is “no glycosyltransferase activity was detected”. Further, in data set [1] (E. coli strain EC-55), the “glycosyl transferase activity in vivo” value is “lack of activity”.

B3: Si94D: glycosyl transferase active on cannabinoid glycosides, SEQ ID NO: 145, 146 (protein)
chain: MDTRKRSIRILMFPWLAHGHISAFLELAKSLAKRNFVIYICSSQVNLNSISKNMSSKDSISVKLVELHIPTTILPPPYHTTNGLPPHLMSTLKRALDSARPAFSTLLQTLKPDLVLYDFLQSWASEEAESQNIPAMVFLSTGAAAISFIMYHWFETRPEEYPFPAIYFREHEYDNFCRFKSSDSGTSDQLRVSDCVKRSHDLVLIKTFRELEGQYVDFLSDLTRKRFVPVGPLVQEVGCDMENEGNDIIEWLDGKDRRSTVFSSFGSEYFLSANEIEEIAYGLELSGLNFIWVVRFPHGDEKIKIEEKLPEGFLERVEGRGLVVEGWAQQRRILSHPSVGGFLSHCGWSSVMEGVYSGVPIIAVPMHLDQPFNARLVEAVGFGEEVVRSRQGNLDRGEVARVVKKLVMGKSGEGLRRRVEELSEKMREKGEEEIDSLVEELVTVVRRRERSNLKSENSMKKLNVMMMENREGMLSENA
For the molecule B3, the “efficiency of 1-6 glucose-glucose linkage (gentiobioside) formation” value in data set [3] (combined with Pt88G, CBD and UDP-glucose as substrates) turned out to be 100%.

B4: PL-159(Pt88G_GA) (protein)
chain: MEDTIVLYPSPGRGHLFSMVELGKQILEHHPSISITIIISAMPTESISIDDPYFSTLCNTNPSITLIHLPQVSLPPNTSFSPLDFVASFFELPELNNTNLHQTLLNLSKSSNIKAFIIDFFCSAAFEFVSSRHNIPIYFFYTTCASGLSMFLHLPILDKIITKSLKDLDIIIDLPGIPKIPSKELPPAISDRSHRVYQYLVDTAKLMIKSAGLIINTFELLERKALQAIQEGKCGAPDEPVPPLFCVGPLLTTSESKSEHECLTWLDSQPTRSVLFLCFGSMGVFNSRQLRETAIGLEKSGVRFLWVVRPPLADSQTQAGRSSTPNEPCLDLLLPEGFLERTKDRGFLVNSWAPQVEILNHGSVGGFVTHCGWNSVLEALCAGVPMVAWPLYAEQRMNRIFLVEEMKVALAFREAGDDHFVNAAELEERVIELMNSKKGEAVRERVLKLREDAVVAKSDGGSSCIAMAKLVDCFKKG
Regarding B4, the “% conversion of CBD to OB1 (CBD-1′-O-β-D-glucoside)” value in data set [2] (glycosyl transferase in vitro, Table 24) is 97.4%. Moreover, the “% conversion of CBD to OB13 (CBD-1′-O-α-L- rhamnoside)” value in data set [2] (glycosyl transferase in vitro, Table 25) is 2.0%. Besides, the “% conversion of CBD to OB9 (CBD-1′-O-β-D-xyloside)” value in data set [2] (glycosyl transferase in vitro, Table 26) worked out at 12.4%. The “% conversion of CBDV to OB24 (CBDV-1′-O-β-D-glucoside)” value in data set [2] (glycosyl transferase in vitro, Table 33) amounted to 89.2%. Moreover, the “% conversion of CBDA to OB31 (CBDA-1′-O-β-D-glucoside)” value in data set [2] (glycosyl transferase in vitro, Table 37) came out at 12.0%. Also, the “% conversion, CBG to OB32 (CBG-1′-O-β-D-glucoside)” value in data set [2] (substrate CBG, product OB32, glycosyl transferase in vitro) amounted to 51.9%. In addition, the “amount of CBD converted to OB1 (CBD-1′-O-β-D-glucoside) expressed as a percentage” value in data set [3] (substrate CBD, in vitro) came to 97.5%.

For the origin of these results see patent US20220290200A1, “GENETICALLY MODIFIED HOST CELLS PRODUCING GLYCOSYLATED CANNABINOIDS” (OCTARINE BIO IVS, priority 2019, published 2022).
